# In the DeepSol protein solubility set:
# Experiment: soluble on expression in E. coli; label from the status in PepcDB or PDB records
row,Sequence,soluble on expression in E. coli
1,MGSDKIHHHHHHENLYFQGMRISANFDGGNIETISLANPDDIQLAIRPDAGGEFYQWFNFRFEATIGKTYTLNILNAGGASYLKGWEDYQAVASYDRQTWFRLPTEYKDGKLSISVELDCEAIQIAYFTPYSYERHLDLISAVQLHPLVSTEHLGLTLDGRDMTLVKVGDDDPSKKSIWITARQHPGETMAEWLVEGLLNQLLDNDCPTSKALLDKANFYIVPNMNPDGSVRGHLRTNAVGANLNREWQTPSLERSPEVYYVVNKMHETGVDLFYDVHGDEGLPYVFLAGCEGIPNYSDKLASLQQDFVAALSLASADFQTEFGYDKDEPGKANLTVACNWVANTFKCLSNTLEMPFKDNANLADPFQGWSPERSVYFGEASLIAMRAVIDKIGQ,soluble
2,MGSDKIHHHHHHENLYFQGMSRKVILTCAVTGNAPFNPKHPSMPITPAQIADACVEAAKAGASVAHIHVRDPKTGGGSRDPVLFKEVVDRVRSSGTDIVLNLTCGLGAFLLPDPEDESKALPESDVVPVAERVKHLEDCLPEIASLDITTGNQVEGKLEFVYLNTTRTLRAMARRFQELGIKPELEVFSPGDILFGKQLIEEGLIDGVPLFQMVLGVLWGAPASTETMIYQRNLIPANAQWAAFGIGRDQMPMMAQAALLGGNVRVGLEDNLYLSRGVFATNGQLVERARTVIEHLGMSVATPDEARDIMGLSRPA,soluble
3,MGSDKIHHHHHHGQNVHPNLPWIDISGQRERQVTIAPGRPDLYNGHPTTVMMDDHKTILCTWSYGHGGKASFIAESKDAGLTWKNGKTPADWQTMSNCPSIYKLTDKQGKERVFVFSAWPDMPMTYSEDGGKSWSPVRSLNKPCVMAFSSIVKLKNGDYLGLYHRGLNDRDRPPLTLWQSVSHDGGLTWSESVKVGEMEGRSPCEPCVFRAPDGKRLVCVARENNRVGNSLMMFSDDEGTTWSPLQKTPWGLTGDRHVIKFTPDGRMIAVFRDMAPNSPTKGHFVAWVGNYKDLLEGTSGQYKIKLLHSYAGSDCGYPGLEILPDGTIVAITYVKMRPGPEQHSIVGVRFKLEETDKMLY,not soluble
4,MGSDKIHHHHHHIDQWIRRQHHPTGNPTATQNKVFIATQNQPLLMDTGEKKSPPPPTPPNPPVNHAIAPVAQHPQPMPIPHQVPSPAHGAAHGHPQAPPMYPGIGFAPGMLQLPQNMQTTIVYTPSMAYDNGHPAAQVN,not soluble
5,MGSDKIHHHHHHILDSTIYLIGTAHFSKESQEDVSNTIRAVQPDFVMLELCPSRISIISMDEARLLSEAKDLNSQKIIQTMKQNGAIQGILHVLLLSMSAHVTRELSMAPGGEFRAAHRAAVATENCRVVLGDRPIQVTLQRALASLSIWQKIRFFFHVAFSHREKITAEEVERCKQRDLLEQLLAEMADDFPQLSQIFVEERDAYMTHALHMLVHRNSVEKRAQWLRGTTGQQFQPLTVVAVV,not soluble
6,MGSDKIHHHHHHKDDEESTSGYDPNKPIVLTDFYPPEGKLATQVILNGSNFGDSKENVKVFFNDKEASVISVKDDRMLVLAPKRASTIEDPECVVKVQVHEQIEEYKQTFDYYIQTTVTTLVGGSTSAQVNPTGTIPLSEAQFRANIDRCICVDQDKNVFFLVDNDGKFAAFMLNEEADKLISLKSDINALFNSPVLGYNSKDDIVYQFWANRDSHEVYYFDPKTDYAPTTAISSISWDDPNFPNIEGFGVWAAKCNFTMGPDGKMYSRMLGGNLVRIDVENARGENLTNGDLVGTKDGSAYGLVFDPQDENVFYFSNNDKHCIYKYDLRTKECACWAGQEGKSGYLDGPIGQAMFNKPGQMCVDSEGNIILTDTENHCIRKITMSTGYVSTLAGKPQNSGYVNGSAEDAQFKKPLGICIDNDDVMYIGDSENRAIRRLAVE,not soluble
7,MGSDKIHHHHHHKETSEKPVLFPDYADVTIPYNIAPLNFKIENPHAEAFAVLKFGEEKIQVKEKGGQFYLPASDWRKLLKRATGKAIQVKLYAKDKEWLAYPEFSLFVAPEPMDSYLAYRLIEPGYELWNQMGIYQRNLEDYKQSPIMENKYSGQNCMNCHSFCMQNPDKMLFHMRDKYSGTYLIDGDKIEKLNTKTDQTISPLVYPSWHPSGKYVAFSVNQTSQSFHANDKNRVEVFDSQSDVVVYDTEKHEIISTPSIRTAKAFETFPTFSPDGKTLYFCSAEARSMPHEYSEVKYNLCSIAFDPVTRSFGSRIDTLYNAGKDGKSASFPRVSPDGKFLLYTLSGYGNFSIWHKDADLYLLDIASGISHSLQNANSTDTESYHSWSSNSRWIVFSSRRIDGLYTRPYFAYIDEEGNASKPFLLPQKDTDYYHRFMKSYNIPEFITGKVSSKIRALSTLAKEDKGIDVTYRK,not soluble
8,MGSDKIHHHHHHKRQVSGDEAYLQASPLSELHAPAGMILPIQVGDYNIPVANSTGAVGKALDIRPPAQPLALVSGARTQFNGDTATLMVENGRSGSLWAQVTSILQAKNYVIAKRDDASQTLNTDWVEWNRLDEDQQYRGRYQISVKPQGYQQAVVVKLVNLEQAGKPVADPASLQRYSTAMLNVISEGLDMNATSAQNAAQRSAGATFDVQSAADDTGLPMLVVRAPFNLVWQRLPGALEKVGMKVTDSTRSQGSMALTYKPLSDSSWQELGARDPQLVSGDYKLQVGDLDNRSSLQFIDPKGHTLTQSQNDALVAVFQAAFNK,not soluble
9,MGSDKIHHHHHHKVRPTKTTLKKDTQLYGVTIDDSWYDRTKMTDIIAALKAMPVKPTVRIVMSKDSSPKSYVNLFRKLHKVAYVMACPVDSYEMNLYKDVNSYRKRFAVAYHYLSSYTDIWEIGNEVNGTDWIKQKNTLITQKLKAVCQTISSAGGKTALTFYYENPKYDHDMIAWIKKNIPVMLRSRVDYGFISYYEDDNEGYQPDWQSVFNQLQNLFPNSNVGMGECGNTADNATENSKIAMAKRYYTMPKYTKHYVGGYFWWEWVQDCVPHENNPIYDAINKSLKK,not soluble
10,MGSDKIHHHHHHLEFWDGLSGGKAITPLKKEEIKHIEKQLGSRLPKSYLKKMEEQNGGDIAFNSVVVNFKNSWSDEETGLYLPLYEFMPLTIGKFVENTSVLNEWGLAGKKMIFGEGEGSYLWYFDFDENPKNPEVWCLDISDETAHLVAESFEALLPNLKKRANDDVLTHEDVFADYPSMCEIRETIKGTDEDARLEAYRMWLTRCEDLEGLIAELRQRVEHSDEEDELDSYAELLAEVLINYTSEEFMTYEEAIALFNKKEDVSDLSHVIVQLESEV,not soluble
11,MGSDKIHHHHHHLFAIRDEHLALDIVQDSMMKLVEKYSAKPLEELPLLFQRILQNTIRDFYRRQKTRSLWTTLFSAFIPSDHEKESEDFDLLETLQSDPSSSKVNDPHQQLEQSQLINLLERAIETLPARQREAFLLRYWEEMDVMETAKIMGCSEGSVKTHCSRATHTLAAMLKKHGIGL,not soluble
12,MGSDKIHHHHHHLFSEAQMQKMGAESFASMNQEQKVSKDKALTTYVNCVAKRITDVLPGEAKPWELVLFESDQVNAFAVPGGFIGVYTGLLNVANTQDQLATVLGHEVAHVLAHHGNEQVSRAQMTGLGIQLADVALGAGGVSNKDLYMQALGLGAKVGYILPFGRTQESEADVMGLELMAKAGFDPSQSITLWQNMAKAGGAQGPELLSTHPSNERRIQDLQGLQGRVAPLYLAARETQLAKCIQPGKK,not soluble
13,MGSDKIHHHHHHLGRRGTADDEILLTYCPTLFIVGAEGRRFNNEAITELRTSMISPSGLVVVGHSNDMILVPTSMLLRLGISQTVVFRMVLEKILDFLNLEPVRQQEFADLVPIELNNVFDLDSALLKSDKALSGLAFASSTHSASSSAAPSPVGASGRRATVTGAGSEDIAKRRKESIILSQQIAAPSISGPPPPAPSPRTEDRFLAFQNLVASTITTGDDMPRRASMGASPRVIERGDFRDHRPPPPPPLPILQNPVATPMSQQPPLPSPAPPPPRGPVDPASISLI,not soluble
14,MGSDKIHHHHHHLIRGLYTAGAGMMLQMARQDVVANNLANVNTSGFKKNTAVAKAFPDMLISRLGECKEDKQGQLKVQSPVVIGRLGTGASISGIYTDFDNNNLKKTDSPCDLAITGAGYFVVQTPEGQRFTRCGEFKINSEGILTTNSGYPVLDSNDSPITIEGEFLIDEQGNINVDGENITRLKIVNFNDLQILERLGDNLLNSPEEPYVMERPEMLQGYIEQSNVNAVKEMVTLISVVRAYESLQKMVQAEDEIMGQAIDKVGSIN,not soluble
